Values quoted from earlier work as cited in article doi:10.1101/2024.07.26.605324.

Assays:
[1] = target: His19 (UniProt position 19, ILSALHFMAWT); experiment: NMR; conditions: 243–263 K; membrane-bound tetramer, wild type with both His19 and His27 present
[2] = target: His27 (UniProt position 27, AWTIGHLNQIK); experiment: NMR; conditions: 243–263 K; membrane-bound tetramer, wild type with both His19 and His27 present

## Influenza B virus matrix protein 2 (BM2) proton channel (Influenza B virus)
[1]
  pKa: 4.2
[2]
  pKa: 7.9
